Experimental data from the supplement of paper PMC9112550, “Optimization of the antimicrobial peptide Bac7 by deep mutational scanning” (BMC Biology, 2022).

Test system: Escherichia coli TOP10
Assay: shrunken log2 fold change of peptide-encoding DNA abundance (4.5 h post-induction vs induction); higher = less antimicrobial activity (less host growth inhibition)
Details: time post-induction: 4.5 h; library: site-saturation at positions 5, 18, 19, 20
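Further: peptides expressed intracellularly from a pBAD plasmid library in pooled LB shake-flask culture, induced with 0.3% L-arabinose, DNA abundance read by NGS, three biological replicates, DESeq2 with apeglm shrinkage.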

Row | Sequence | shrunken log2 fold change
1 | RRIRMRPPRLPRPRPRPLMFPRP | 0.0219
2 | RRIRMRPPRLPRPRPRPLMKPRP | 0.313
3 | RRIRMRPPRLPRPRPRPLMNPRP | -0.263
4 | RRIRMRPPRLPRPRPRPLNDPRP | 0.106
5 | RRIRMRPPRLPRPRPRPLNHPRP | -0.0957
6 | RRIRMRPPRLPRPRPRPLNNPRP | 0.0119
7 | RRIRMRPPRLPRPRPRPLPGPRP | 0.8
8 | RRIRMRPPRLPRPRPRPLQCPRP | -0.0663
9 | RRIRMRPPRLPRPRPRPLQIPRP | -0.343
10 | RRIRMRPPRLPRPRPRPLQMPRP | 2.29
11 | RRIRMRPPRLPRPRPRPLQTPRP | 3.06
12 | RRIRMRPPRLPRPRPRPLRLPRP | 0.959
13 | RRIRMRPPRLPRPRPRPLSAPRP | 1.19
14 | RRIRMRPPRLPRPRPRPLSKPRP | -0.103
15 | RRIRMRPPRLPRPRPRPLSNPRP | -0.0789
16 | RRIRMRPPRLPRPRPRPLSQPRP | 0.0295
17 | RRIRMRPPRLPRPRPRPLSWPRP | 0.982
18 | RRIRMRPPRLPRPRPRPLTGPRP | 0.0753
19 | RRIRMRPPRLPRPRPRPLTMPRP | 0.24
20 | RRIRMRPPRLPRPRPRPLYIPRP | -1.01
21 | RRIRMRPPRLPRPRPRPMAFPRP | 0.102
22 | RRIRMRPPRLPRPRPRPMCEPRP | 0.273
23 | RRIRMRPPRLPRPRPRPMCPPRP | -0.00088
24 | RRIRMRPPRLPRPRPRPMCSPRP | -0.00161
25 | RRIRMRPPRLPRPRPRPMDPPRP | 0.038

Row | Sequence | shrunken log2 fold change
26 | RRIRMRPPRLPRPRPRPMEDPRP | 0.0119
27 | RRIRMRPPRLPRPRPRPMFKPRP | 0.0609
28 | RRIRMRPPRLPRPRPRPMFQPRP | -0.228
29 | RRIRMRPPRLPRPRPRPMFYPRP | -0.127
30 | RRIRMRPPRLPRPRPRPMGHPRP | -0.032
31 | RRIRMRPPRLPRPRPRPMLNPRP | -0.0171
32 | RRIRMRPPRLPRPRPRPMLPPRP | 0.301
33 | RRIRMRPPRLPRPRPRPMLTPRP | 2.52
34 | RRIRMRPPRLPRPRPRPMNMPRP | -0.344
35 | RRIRMRPPRLPRPRPRPMNQPRP | 0.646
36 | RRIRMRPPRLPRPRPRPMPSPRP | 0.262
37 | RRIRMRPPRLPRPRPRPMQDPRP | 1.14
38 | RRIRMRPPRLPRPRPRPMSWPRP | 0.132
39 | RRIRMRPPRLPRPRPRPMWAPRP | 0.392
40 | RRIRMRPPRLPRPRPRPMWRPRP | 0.00628
41 | RRIRMRPPRLPRPRPRPMYEPRP | 0.221
42 | RRIRMRPPRLPRPRPRPNAHPRP | 8.74e-05
43 | RRIRMRPPRLPRPRPRPNATPRP | 2.16
44 | RRIRMRPPRLPRPRPRPNCQPRP | 0.356
45 | RRIRMRPPRLPRPRPRPNDCPRP | -0.00865
46 | RRIRMRPPRLPRPRPRPNDHPRP | -0.0869
47 | RRIRMRPPRLPRPRPRPNGIPRP | 0.0753
48 | RRIRMRPPRLPRPRPRPNGWPRP | 0.175
49 | RRIRMRPPRLPRPRPRPNHVPRP | -0.409
50 | RRIRMRPPRLPRPRPRPNIDPRP | -0.764

Row | Sequence | shrunken log2 fold change
51 | RRIRMRPPRLPRPRPRPNIGPRP | -0.0302
52 | RRIRMRPPRLPRPRPRPNKCPRP | 0.216
53 | RRIRMRPPRLPRPRPRPNKWPRP | 0.079
54 | RRIRMRPPRLPRPRPRPNLHPRP | -0.0942
55 | RRIRMRPPRLPRPRPRPNNWPRP | -0.0238
56 | RRIRMRPPRLPRPRPRPNQRPRP | 0.332
57 | RRIRMRPPRLPRPRPRPNSHPRP | -0.451
58 | RRIRMRPPRLPRPRPRPNSVPRP | -0.0202
59 | RRIRMRPPRLPRPRPRPNVFPRP | 0.136
60 | RRIRMRPPRLPRPRPRPNVLPRP | 0.359
61 | RRIRMRPPRLPRPRPRPNVQPRP | -0.166
62 | RRIRMRPPRLPRPRPRPNWNPRP | 0.344
63 | RRIRMRPPRLPRPRPRPNWPPRP | 0.096
64 | RRIRMRPPRLPRPRPRPNYIPRP | -0.492
65 | RRIRMRPPRLPRPRPRPNYVPRP | -0.536
66 | RRIRMRPPRLPRPRPRPPAGPRP | 1.5
67 | RRIRMRPPRLPRPRPRPPCEPRP | 1.11
68 | RRIRMRPPRLPRPRPRPPCTPRP | 0.738
69 | RRIRMRPPRLPRPRPRPPDYPRP | 0.345
70 | RRIRMRPPRLPRPRPRPPGKPRP | 0.978
71 | RRIRMRPPRLPRPRPRPPHMPRP | 0.296
72 | RRIRMRPPRLPRPRPRPPIQPRP | 0.693
73 | RRIRMRPPRLPRPRPRPPMGPRP | 0.921
74 | RRIRMRPPRLPRPRPRPPMYPRP | -0.0977
75 | RRIRMRPPRLPRPRPRPPNHPRP | 0.206

Row | Sequence | shrunken log2 fold change
76 | RRIRMRPPRLPRPRPRPPNLPRP | 0.0707
77 | RRIRMRPPRLPRPRPRPPNPPRP | 0.822
78 | RRIRMRPPRLPRPRPRPPNQPRP | 0.42
79 | RRIRMRPPRLPRPRPRPPNWPRP | 1.03
80 | RRIRMRPPRLPRPRPRPPPAPRP | 2.14
81 | RRIRMRPPRLPRPRPRPPPGPRP | 1.86
82 | RRIRMRPPRLPRPRPRPPRLPRP | 1.06
83 | RRIRMRPPRLPRPRPRPPSAPRP | 1.2
84 | RRIRMRPPRLPRPRPRPPTMPRP | 0.271
85 | RRIRMRPPRLPRPRPRPPWFPRP | 0.568
86 | RRIRMRPPRLPRPRPRPPYVPRP | -0.0137
87 | RRIRMRPPRLPRPRPRPQATPRP | -0.00147
88 | RRIRMRPPRLPRPRPRPQCDPRP | -0.0599
89 | RRIRMRPPRLPRPRPRPQCSPRP | 0.113
90 | RRIRMRPPRLPRPRPRPQCTPRP | 0.0479
91 | RRIRMRPPRLPRPRPRPQCYPRP | -0.0225
92 | RRIRMRPPRLPRPRPRPQDFPRP | 0.0427
93 | RRIRMRPPRLPRPRPRPQFAPRP | 0.0822
94 | RRIRMRPPRLPRPRPRPQFDPRP | -0.0694
95 | RRIRMRPPRLPRPRPRPQFVPRP | -0.0894
96 | RRIRMRPPRLPRPRPRPQGFPRP | -0.00865
97 | RRIRMRPPRLPRPRPRPQHSPRP | -0.183
98 | RRIRMRPPRLPRPRPRPQIDPRP | 0.141
99 | RRIRMRPPRLPRPRPRPQIEPRP | 0.277
100 | RRIRMRPPRLPRPRPRPQIWPRP | 0.144

Row | Sequence | shrunken log2 fold change
101 | RRIRMRPPRLPRPRPRPQKQPRP | 0.0157
102 | RRIRMRPPRLPRPRPRPQLAPRP | 0.598
103 | RRIRMRPPRLPRPRPRPQMGPRP | 0.0997
104 | RRIRMRPPRLPRPRPRPQMLPRP | 0.186
105 | RRIRMRPPRLPRPRPRPQMSPRP | 0.174
106 | RRIRMRPPRLPRPRPRPQNYPRP | -0.377
107 | RRIRMRPPRLPRPRPRPQQLPRP | -0.0103
108 | RRIRMRPPRLPRPRPRPQQRPRP | 0.586
109 | RRIRMRPPRLPRPRPRPQRIPRP | -0.0462
110 | RRIRMRPPRLPRPRPRPQRKPRP | 0.605
111 | RRIRMRPPRLPRPRPRPQVYPRP | 0.0985
112 | RRIRMRPPRLPRPRPRPQWGPRP | 0.0503
113 | RRIRMRPPRLPRPRPRPQWPPRP | -0.132
114 | RRIRMRPPRLPRPRPRPQYNPRP | -0.934
115 | RRIRMRPPRLPRPRPRPRADPRP | 1.73
116 | RRIRMRPPRLPRPRPRPRAGPRP | 1.08
117 | RRIRMRPPRLPRPRPRPRCHPRP | 0.133
118 | RRIRMRPPRLPRPRPRPRCSPRP | 0.393
119 | RRIRMRPPRLPRPRPRPREAPRP | 1.82
120 | RRIRMRPPRLPRPRPRPREDPRP | 0.0544
121 | RRIRMRPPRLPRPRPRPREGPRP | 0.79
122 | RRIRMRPPRLPRPRPRPRELPRP | 1.54
123 | RRIRMRPPRLPRPRPRPREMPRP | 0.657
124 | RRIRMRPPRLPRPRPRPRFQPRP | 0.268
125 | RRIRMRPPRLPRPRPRPRFSPRP | 0.206

Row | Sequence | shrunken log2 fold change
126 | RRIRMRPPRLPRPRPRPRHFPRP | 0.00681
127 | RRIRMRPPRLPRPRPRPRHSPRP | 0.0596
128 | RRIRMRPPRLPRPRPRPRHVPRP | 0.437
129 | RRIRMRPPRLPRPRPRPRKIPRP | 0.322
130 | RRIRMRPPRLPRPRPRPRKRPRP | 3
131 | RRIRMRPPRLPRPRPRPRLDPRP | 0.897
132 | RRIRMRPPRLPRPRPRPRLFPRP | 0.998
133 | RRIRMRPPRLPRPRPRPRLVPRP | 0.76
134 | RRIRMRPPRLPRPRPRPRPAPRP | 1.51
135 | RRIRMRPPRLPRPRPRPRQAPRP | 0.013
136 | RRIRMRPPRLPRPRPRPRQTPRP | 0.0189
137 | RRIRMRPPRLPRPRPRPRSAPRP | 1.36
138 | RRIRMRPPRLPRPRPRPRSHPRP | 0.407
139 | RRIRMRPPRLPRPRPRPRSPPRP | 0.921
140 | RRIRMRPPRLPRPRPRPRSRPRP | 0.997
141 | RRIRMRPPRLPRPRPRPRYEPRP | -0.0771
142 | RRIRMRPPRLPRPRPRPRYFPRP | 0.0308
143 | RRIRMRPPRLPRPRPRPSAGPRP | 0.655
144 | RRIRMRPPRLPRPRPRPSAMPRP | 1.44
145 | RRIRMRPPRLPRPRPRPSCIPRP | -0.27
146 | RRIRMRPPRLPRPRPRPSDFPRP | -0.764
147 | RRIRMRPPRLPRPRPRPSFHPRP | -0.432
148 | RRIRMRPPRLPRPRPRPSFIPRP | -0.668
149 | RRIRMRPPRLPRPRPRPSGGPRP | 0.738
150 | RRIRMRPPRLPRPRPRPSHTPRP | 0.0597
